Laboratory results reported in patent US20220406376A1 (MacroGenics, published 2022).
Where a chain is given by its changes, count along the chain named.

T1: 5T4 on the surface of target cells (JIMT-1, SKOV-3) (UniProt Q13641 32-420, limits assumed)
T1 construct: whole, on cells
T1 sequence (looked up): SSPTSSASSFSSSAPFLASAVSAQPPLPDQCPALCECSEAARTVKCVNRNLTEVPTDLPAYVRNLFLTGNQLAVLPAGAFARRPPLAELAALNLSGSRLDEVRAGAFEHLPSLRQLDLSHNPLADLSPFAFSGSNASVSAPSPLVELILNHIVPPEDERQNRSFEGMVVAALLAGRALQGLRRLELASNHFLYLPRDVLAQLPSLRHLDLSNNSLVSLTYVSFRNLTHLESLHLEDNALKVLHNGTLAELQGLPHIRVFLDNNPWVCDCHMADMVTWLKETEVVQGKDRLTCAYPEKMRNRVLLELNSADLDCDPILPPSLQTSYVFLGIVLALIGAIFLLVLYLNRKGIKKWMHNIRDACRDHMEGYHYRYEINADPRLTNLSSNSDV

B1: chCD137 MAB-5 (antibody, V domains shown)
VH: QVQLKESGPGLVAPSQSLSITCTVSGFSLTSYDISWIRQPPGKGLEWLGVVWTGGGTNYNSAFMSRLSISKDNSKSQVFLKMNSLQTDDTAIYYCERVDYWGQGTSVTVSS
VL: DVVMTQTPLSLPVSLGDQASISCRSSQSLVHSNGNTYLHWYLQKPGQSPKLLIYKVSNRFSGVPDRFSGSGSGTDFTLKISRVEAEDLGVYFCSQSTHVPWTFGGGTKLEIK
B2: chCD137 MAB-3 (antibody, V domains shown)
VH: QVQLQQPGAELVRPGASVKLSCKASGYTFTSYWINWVKQRPGQGLEWIGNIYPSDSYTNYNQKFKDKATLTVDKSSSTAYMQLSSPTSEDSAVYYCTRDYGSSYSFDYWGQGTTLTVSS
VL: DIQMTQTTSSLSASLGDRVTISCRPSQDISNYLNWYQQKPDGTVKLLIYYTSRLRSGVPSRFSGSGSGTDYSLTISNLEQEDIATYFCQQGDTLPYTFGGGTKLEIK
B3: chCD137 MAB-4 (antibody, V domains shown)
VH: QVQLQQPGAELVRPGASVKLSCKASGYTFTSYWINWVKQRPGQGLEWIGNIYPSDSYTNYDQKFKDKATLTVDKSSSTAYMQLSSPTSEDSAVYYCTKSGEYGKIGYYAMDYWGQGTSVTVSS
VL: B2 VL with P25A, R55H, D92N
B4: TRIDENT-1 (bispecific antibody, human IgG1, kappa, L234A L235A)
chain 1: DIQMTQSPSSLSASVGDRVTITCRPSQDISNYLNWYQQKPDKTVKLLIYYTSRLRSGVPSRFSGSGSGTDFTFTISSLQPEDIATYFCQQGDTLPYTFGQGTKLEIKGGGSGGGGQVQLVQSGAEVKKPGASVKVSCKASGYTFTSYWINWVKQAPGQGLEWIGNIYPSDSYTNYNQKFKDKATITADKSTSTAYMELSSLRSEDTAVYYCTRDYGSAYSMSTWGQGTTVTVSSASTKGEVAACEKEVAALEKEVAALEKEVAALEKGGGDKTHTCPPCPAPEAAGGPSVFLFPPKPKDTLMISRTPEVTCVVVDVSHEDPEVKFNWYVDGVEVHNAKTKPREEQYNSTYRVVSVLTVLHQDWLNGKEYKCKVSNKALPAPIEKTISKAKGQPREPQVYTLPPSREEMTKNQVSLWCLVKGFYPSDIAVEWESNGQPENNYKTTPPVLDSDGSFFLYSKLTVDKSRWQQGNVFSCSVMHEALHNHYTQKSLSLSPGK
chain 2: DIQMTQSPSSLSASVGDRVTITCRPSQDISNYLNWYQQKPDKTVKLLIYYTSRLRSGVPSRFSGSGSGTDFTFTISSLQPEDIATYFCQQGDTLPYTFGQGTKLEIKGGGSGGGGQVQLVQSGAEVKKPGASVKVSCKASGYTFTSYWINWVKQAPGQGLEWIGNIYPSDSYTNYNQKFKDKATITADKSTSTAYMELSSLRSEDTAVYYCTRDYGSAYSMSTWGQGTTVTVSSASTKGKVAACKEKVAALKEKVAALKEKVAALKE
heavy: QVTLRESGPALVKPTQTLTLTCTFSGFSLSTSGMSVGWIRQPPGKALEWLADIWWDDKKDYNPSLKSRLTISKDTSKNQVVLKVTNMDPADTATYYCARSMITNWYFDVWGAGTTVTVSSASTKGPSVFPLAPSSKSTSGGTAALGCLVKDYFPEPVTVSWNSGALTSGVHTFPAVLQSSGLYSLSSVVTVPSSSLGTQTYICNVNHKPSNTKVDKRVEPKSCDKTHTCPPCPAPEAAGGPSVFLFPPKPKDTLMISRTPEVTCVVVDVSHEDPEVKFNWYVDGVEVHNAKTKPREEQYNSTYRVVSVLTVLHQDWLNGKEYKCKVSNKALPAPIEKTISKAKGQPREPQVYTLPPSREEMTKNQVSLSCAVKGFYPSDIAVEWESNGQPENNYKTTPPVLDSDGSFFLVSKLTVDKSRWQQGNVFSCSVMHEALHNRYTQKSLSLSPGK
light: DIQMTQSPSTLSASVGDRVTITCRASQSVGYMHWYQQKPGKAPKLLIYDTSKLASGVPSRFSGSGSGTEFTLTISSLQPDDFATYYCFQGSGYPFTFGGGTKLEIKRTVAAPSVFIFPPSDEQLKSGTASVVCLLNNFYPREAKVQWKVDNALQSGNSQESVTEQDSKDSTYSLSSTLTLSKADYEKHKVYACEVTHQGLSSPVTKSFNRGEC
notes: also called CD137×CD137×RSV control molecule; CD137×RSV control molecule
B5: TRIDENT-4 (bispecific antibody, human IgG1, kappa, L234A L235A)
chain 1: B4 chain 1 with R24Q, P25A, S52G, L54A, K153R
chain 2: B4 chain 2 with R24Q, P25A, S52G, L54A, K153R
heavy: B4 heavy
light: B4 light
B6: CD137 MAB-1 (antibody, V domains shown)
VH: QVQLQQWGAGLLKPSETLSLTCAVYGGSFSGYYWSWIRQSPEKGLEWIGEINHGGYVTYNPSLESRVTISVDTSKNQFSLKLSSVTAADTAVYYCARDYGPGNYDWYFDLWGRGTLVTVSS
VL: EIVLTQSPATLSLSPGERATLSCRASQSVSSYLAWYQQKPGQAPRLLIYDASNRATGIPARFSGSGSGTDFTLTISSLEPEDFAVYYCQQRSNWPPALTFGGGTKVEIK
notes: also called urelumab; BMS-663513

Experiments:
[1] = molecular target: T2, CD137 on the surface of cells (activated human T cells; engineered CHO cells) (human, UniProt Q07011 24-255); assay: flow cytometry on activated pan T cells gated CD8+, anti-hFc APC MFI
T2 construct: whole, on cells; also called human CD137; cell surface expressed CD137
T2 sequence (Q07011 24-255, change not shown): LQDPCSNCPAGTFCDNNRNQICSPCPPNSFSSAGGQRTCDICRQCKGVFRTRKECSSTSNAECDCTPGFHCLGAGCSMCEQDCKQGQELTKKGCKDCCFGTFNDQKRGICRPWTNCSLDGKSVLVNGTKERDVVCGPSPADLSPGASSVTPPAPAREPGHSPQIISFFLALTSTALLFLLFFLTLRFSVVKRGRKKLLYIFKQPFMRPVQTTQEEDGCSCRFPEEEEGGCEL
Protocol: Three antibodies were selected for further study. For such evaluations, purified pan T-cells (see above) were stimulated with anti-CD3/CD28 beads (cells:beads=1:1) for 72 hours in the presence of IL-2 (100 U/mL). 100 μL of activated T cells (1.0×10⁶ cells/mL) and 100 μL of serially diluted (5- or 10-fold dilutions) test article (antibody or bispecific diabody) was added to each well of microtiter assay plate(s), mixed and incubated at RT for 45 min. The cells were washed with FACS Buffer and secondary antibody (anti-human-Fc region-APC) was then added to each well; mixed and incubated at RT for 30 min. Cells were then washed FACS Buffer and T cell surface marker antibodies (anti-CD4 labeled with V510, and anti-CD8 labeled with FITC) were then added to each well; mixed and incubated at RT for 30 min. Cells were washed and resuspended in 100 μL FACS Buffer and analyzed by flow cytometry (BD LSR Fortessa or FACSCanto 11) for cell event collection. Data analysis were performed via FloJo v10.
Chimeric antibodies having human IgG1 Fc regions and murine VH/VL domains were generated (designated: chCD137 MAB-1, chCD137 MAB-2, chCD137 MAB-3, chCD137 MAB-4 and chCD137 MAB-5, respectively), and were tested for their ability to bind to activated CD8⁺ T cells.

[2] = molecular target: T3, extracellular portion of human CD137 fused to a histidine-containing peptide (human, UniProt Q07011 24-186); assay: SPR (BIACORE); antibody captured on anti-human Fc; huCD137 25 and 100 nM; 1:1 Langmuir
T3 construct: extracellular domain; also called huCD137; His-tagged soluble human CD137
Protocol: Thus, an extracellular portion of human CD137 fused to a histidine-containing peptide (“huCD137”) was passed over a surface coated with immobilized antibody. Briefly, each test molecule was captured onto an F(ab)₂ goat-anti-human Fc-coated surface and then incubated in the presence of different concentrations (25 nM and 100 nM) of huCD137. The kinetics of binding were determined via BIACORE® analysis binding (normalized 1:1 Langmuir binding model).

[3] = molecular target: T4, HER2/neu on the surface of target cells (N87, JIMT-1, MCF-7, MDA-MB231) (UniProt P04626 23-1255, limits assumed); assay: flow cytometry on N87 cells, anti-hFc APC MFI
T4 construct: whole, on cells

[4] = molecular target: T1, 5T4 on the surface of target cells …; assay: flow cytometry on JIMT-1 (5T4 hi) cells, anti-hFc APC MFI
[5] = molecular target: T2, CD137 on the surface of cells …; assay: flow cytometry on activated CD8+ T cells (donor D59788, CD8 FITC), anti-hFc APC MFI
[6] = molecular target: T2, CD137 on the surface of cells …; assay: flow cytometry on activated pan T cells (donor D46433, CD8 PE), anti-hFc APC MFI
[7] = molecular target: T2, CD137 on the surface of cells …; assay: as above; remark: listed apart in the source

Binder | EC50 (read off the curve) [1] [ng/mL] | Kd [2] [nM] | koff [2] [s⁻¹] | kon [2] [M⁻¹ s⁻¹] | binding result [4] | EC50 (read off the curve) [5] [ng/mL] | also measured
B1 | ~100 | – | – | – | – | – | –
B2 | ~2 | 23 | 0.02 | 890000 | – | – | –
B3 | ~20 | 6.1 | 0.00092 | 150000 | – | – | –
B4 | – | – | – | – | no binding (tested: 10 ug/mL) | ~7 | binding result [3]: no binding (tested: about 60 nM (last point)); EC50 (read off the curve) [6]: ~0.03 nM; EC50 (read off the curve) [7]: ~0.03 nM
B5 | – | – | – | – | no binding (tested: 10 ug/mL) | ~7 | –
B6 | ~5 | – | – | – | – | – | –
